Consider two substances from patent publication US9416162B2, “Peptides having reduced toxicity that stimulate cholesterol efflux” (The Regents of the University of California, priority 2013, dated 2016).

One data set has as its system Wistar rats. Description: High-dose IV toxicity of ATI-5261 in rats (plasma ALT, AST, TG, unesterified cholesterol). Type of data set: in vivo, rat. The procedure: (§1) Peptides or peptidomimetics of the invention can be evaluated for toxicity using known assays. Examples of such assays are illustrated in the Examples section. Toxicity is typically assayed in a rat, rabbit, mouse, monkey or dog model. In an illustrative assay, such as that described in Example 1, a peptide is administered intravenously using a rabbit or rat model at doses of 3, 30, and 300 mg/kg and vehicle alone is also administered at 48 hour intervals for a total of four injections. Safety chemistry panels including plasma alanine aminotransferase (ALT), aspartate amino transferase (AST), and creatine kinase (CK) can then be determined in the blood. The presence of elevated levels of these enzymes in the blood compared to control normal values is indicative of toxicity. A peptide of the invention is typically considered to be non-toxic or to have little toxicity, when the results using the highest dose, 300 mg/kg in this illustrative assay, are equivalent (fall within the standard deviation) of the values measured for the control animals that received vehicle alone, or are no more than 2 or 3 times background obtained with vehicle alone. In some embodiments, a toxicity assay is performed where the toxicity of a peptide of the invention is compared to that to ATI-5261. […]
(§2) Cytotoxicity of an HDL mimetic peptide ATI-5261 at high doses was evaluated in rats and rabbits (FIG. 1). […]

Data set [1] deals with New Zealand White rabbits. As to the kind of experiment: High-dose IV bolus toxicity of ATI-5261 in rabbits (plasma ALT, AST, TG, unesterified cholesterol). Type of data set: in vivo, rabbit. The following applies: male New Zealand White rabbits, single IV bolus 3, 30 or 300 mg/kg.
From the text: as §1, with “In an illustrative assay, such as that described in Example 1, a peptide is administered intravenously using a rabbit or rat model at doses of 3, 30, and 300 mg/kg and vehicle alone is also administered at 48 hour intervals for a total of four injections.” left out, “alone.” for “alone. In some embodiments, a toxicity assay is performed where the toxicity of a peptide of the invention is compared to that to ATI-5261.”
as §2
For the experiments in FIG. 2, male chow-fed Wistar rats (Panels A and B) were administered ATI-5261 at doses of 3, 30, and 300 mg/kg as described in FIG. 1. Plasma triglyceride (TG, Panel A) and unesterified cholesterol (Panel B) concentrations were determined enzymatically at the times indicated. […]

For the next data set, the system named is C57Bl/6 mice. As to the kind of experiment: Safety and TG elevating effects after IP injection in C57Bl/6 mice (plasma CPK, ALT, AST, lipids). Type of data set: in vivo. The procedure:
The high-dose cytotoxic response of ATI-5261 observed in rat, rabbit and cynomolgus monkey is additionally recapitulated in mice (FIG. 4). Male chow-fed C57bl/6 mice were injected intraperitonelly (IP) with 30 or 300 mg/kg of lipid-fee ATI-5261. Blood was collected via the retro-orbital plexus 4 h after peptide injection and plasma subsequently obtained for measurement of CPK (Panel A) and ALT and AST activities (Panel B, ALT left bars; AST, right bars). Values are means±SD, n=4 mice per group.
This example illustrates that aromatic phenylalanine residues associated with the non-polar surface of ATI-5261 contributed to the majority of the peptide toxicity (FIG. 5). […] Blood was collected via retro-orbital plexus 4 h after injection for isolation of plasma. Levels of plasma CPK (Panel A), ALT (panel B) and AST (Panel C) were determined as described in FIG. 1. Values are means±SD, n=4 mice per group.
All values (mg/dl) are means±SD, n=4, determined at 4 and 6 h post treatment with peptide.

The subject of a further data set is apoE−/− mice. Description: Atherosclerosis in apoE−/− mice on high-fat western diet, whole aorta Oil-Red O staining. In kind it is in vivo, mouse. The procedure: Male apoE^−/− mice at 8 weeks of age were fed a high-fat western diet for 14 weeks. Mice were subsequently randomized to either a control group to receive IP injection of vehicle alone or lipid-free peptide (30 mg/kg) at 48 hour intervals for 6 weeks. […] The extent of whole aorta covered with fatty lesions is shown, determined by Oil-Red O staining. Values are means±SD, n=10 mice per group.
CS6253, another synthesis batch of T5237-4, was administered IP at 10 mg/kg for 10 weeks showing again reduction of substantial atherosclerosis in apoE^−/− mice (FIG. 36). Male apoE^−/− mice at 8 weeks of age were fed a high-fat western diet for 14 weeks. Mice were subsequently randomized to either a control group to receive IP injection of vehicle alone or lipid-free CS6253 (10 mg/kg) at 48 hour intervals for 10 weeks while the mice remained on high-fat western diet. The extent of whole aorta covered with fatty lesions is shown, determined by Oil-Red O staining. Values are means±SD, n=10 mice per group.
CS6253 administered SC also reduce substantial atherosclerosis in apoE KO mice. Male apoE−/− mice at 8 weeks of age were fed a high-fat western diet for 14 weeks (FIG. 37). One group was terminated before treatment start as baseline control. Mice were subsequently randomized to one of 3 arms to receive subcutaneous (SC) injection alternate days for 6 weeks; vehicle alone, CS6253 30 mg/kg or CS6253 60 mg/kg. During the first 4 treatment weeks the mice remained on high-fat western diet while during the last two weeks of treatment they were switched to chow diet. The extent of whole aorta covered with fatty lesions is shown, determined by Oil-Red O staining. Values are means±SD, n=10 mice per group.

Non-standard residues stand in square brackets, D forms with d. No end group written: not given here. Cit = NC(=O)NCCC[C@H](N)C(=O)O

Take “ATI-5261: HDL mimetic peptide, parent peptide; triglyceride elevating and muscle toxic peptide used as positive control (EVRSKLEEWFAAFREFAEEFLARLKS) [reference compound]”: the “plasma triglycerides and cholesterol” value is “increased plasma triglycerides and cholesterol” in the data set on Wistar rats (male Wistar rats, IV 3, 30, 300 mg/kg); “increased plasma triglycerides and cholesterol” in data set [1]. For the same substance, the “cytotoxic response (plasma ALT and AST)” value is given as “induced a cytotoxic response” in the data set with Wistar rats (male chow-fed Wistar rats, IV 3, 30 and 300 mg/kg at 48 h intervals, 4 injections); “induced a cytotoxic response” in data set [1]. Moreover, the “plasma TG, total and unesterified (free) cholesterol (FC)” value in the data set with C57Bl/6 mice (C57Bl/6 mice, 300 mg/kg, 4 and 6 h post treatment) is listed as “marked increase”. Further, the “cytotoxic/toxic response (plasma CPK, ALT, AST)” value in the data set with C57Bl/6 mice (male chow-fed C57Bl/6 mice, IP 300 mg/kg, plasma 4 h after injection) is “High levels of cytotoxic markers”.

Consider “EVCitSKLEEWLAALCitELAEELLARLKS (SEQ ID NO:2) (EV[Cit]SKLEEWLAAL[Cit]ELAEELLARLKS) [CS6253, citrulline form of LeuATI-5261, R3,14→Citrulline, 26-mer]”, for which the “extent of whole aorta covered with fatty lesions” value with apoE−/− mice (IP 10 mg/kg at 48 hour intervals for 10 weeks), in the data set with apoE−/− mice (IP 30 mg/kg at 48 hour intervals for 6 weeks) and with apoE−/− mice (SC 30 mg/kg or 60 mg/kg alternate days for 6 weeks) was “reduced atherosclerosis” throughout.
